# Measured values reported in US20190298850A1.
# Target: IL-21 (human) (UniProt Q9HBE4)
# Test: cell-based or functional assay
# UniProt Q9HBE4, sequence (Q9HBE4 25-162 limits assumed): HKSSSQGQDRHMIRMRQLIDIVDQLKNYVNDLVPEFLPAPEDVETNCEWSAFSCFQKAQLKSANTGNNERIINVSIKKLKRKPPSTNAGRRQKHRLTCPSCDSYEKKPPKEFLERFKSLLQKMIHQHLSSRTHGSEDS
substance,measurement,value
IL-21R-Ig fusion protein (from UniProt Q9HBE5 20-232) (Fc fusion),decrease in plasma cell differentiation of memory B cells co-cultured with blood PD-1hi CXCR5+ or PD-1hi CXCR5- CD4+ T cells,90%
